# Reference: patent publication US20250186614A1, “COMPACT DRUG RESPONSIVE DOMAINS FOR REGULATION OF FUNCTION/ABUNDANCE AND DELIVERY OF POLYPEPTIDE PAYLOADS” (OBSIDIAN THERAPEUTICS, INC., priority 2022, published 2025)
# Like-named read-outs stand apart in the source and are kept apart here.
# How the values were obtained:
# Assay type in all cases: cell-based
# [1] = system: Jurkat cells; test: Sirolimus (rapamycin) dose response of FKBP13 constructs stably transduced into Jurkat cells, flow cytometry; conditions: rapamycin, Table 14; for Rapamycin FC: fold change
# Experimental: Normalized EC50 values were calculated from the mCherry normalized GFP MFI values, which accounted for any differences in mCherry intensity between samples.
# [2] = Example 4: dose response of FKBP constructs 160-255, Ec50, Ec90 and fold change (raw and normalized to mCherry); conditions: for FC (fold change): fold change during initial analysis
# Experimental: Additional experiments were performed for constructs FKBP-160-292.
# [3] = system: Jurkat cells; test: Tacrolimus dose response of FKBP13-AcGFP-mCherry constructs stably transduced into Jurkat cells, GFP MFI by flow cytometry; conditions: tacrolimus, Table 14; for Tacrolimus FC: fold change
# Outline: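 Jurkat E6-1 cells lentivirally transduced with FKBP13-AcGFP-mCherry constructs to 10-25% mCherry+ (day 5) were dosed with tacrolimus. GFP geometric MFI in mCherry+ cells was measured by flow cytometry and fitted to dose-response curves.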
# [4] = normalized, read-out: Rapamycin EC90 (Norm)
# [5] = FKBP constructs 160-255, not normalized, read-out: EC90
# [6] = normalized to mCherry, read-out: EC90 (Norm)
# [7] = read-out: Tacrolimus EC90 (Norm), normalized
EC90 ([1]; read-out: Rapamycin EC90),EC90 ([3]; read-out: Tacrolimus EC90),Molecule,Rapamycin FC [1],"EC90 [1, 4]","EC90 [2, 5]",FC (fold change) [2],"EC90 [2, 6]","EC90 [3, 7]",Tacrolimus FC [3]
3.84 µM,0.819 µM,"FKBP-182 (protein, Description of sequence: Construct Name: FKBP-182; Mutation(s): Q72R Q84E A117W V85R DRD M54A M96W) HCPIKSRKGDVLHAHYTGKLEDGTEFDSSLPRNQPFVFSLGTGERIKGWDQGLLGWCEGEKRKLVIPSELGYGERGWPPKIPGGATLVFEVELLKIER",21.5,4.11 µM,0.819 µM,64.9,0.928 µM,0.928 µM,64.9
5.31 µM,14.5 µM,"FKBP-187 (protein, Description of sequence: Construct Name: FKBP-187; Mutation(s): Q72R Q84E A117W V85R DRD M54A L80G) HCPIKSRKGDVLHAHYTGKLEDGTEFDSSLPRNQPFVFSGGTGERIKGWDQGLLGMCEGEKRKLVIPSELGYGERGWPPKIPGGATLVFEVELLKIER",2.3,5.66 µM,14.5 µM,24.0,21.3 µM,21.3 µM,24
5.87 µM,17.9 µM,"FKBP-186 (protein, Description of sequence: Construct Name: FKBP-186; Mutation(s): Q72R Q84E A117W V85R DRD M54A G116E) HCPIKSRKGDVLHAHYTGKLEDGTEFDSSLPRNQPFVFSLGTGERIKGWDQGLLGMCEGEKRKLVIPSELGYGEREWPPKIPGGATLVFEVELLKIER",1.7,5.22 µM,17.9 µM,19.0,21 µM,21 µM,19
5.47 µM,25.8 µM,"FKBP-189 (protein, Description of sequence: Construct Name: FKBP-189; Mutation(s): Q72R Q84E A117W V85R DRD M54A H53G R72L) HCPIKSRKGDVLGAHYTGKLEDGTEFDSSLPLNQPFVFSLGTGERIKGWDQGLLGMCEGEKRKLVIPSELGYGERGWPPKIPGGATLVFEVELLKIER",2.5,5.53 µM,25.8 µM,23.0,30.1 µM,30.1 µM,23
5.34 µM,22.1 µM,"FKBP-185 (protein, Description of sequence: Construct Name: FKBP-185; Mutation(s): Q72R Q84E A117W V85R DRD M54A D50L T57I I136L) HCPIKSRKGAVLHAHYIGKLEDGTEFDSSLPRNQPFVFSLGTGERIKGWDQGLLGMCEGEKRKLVIPSELGYGERGWPPKIPGGATLVFEVELLKLER",2,22 µM,22.1 µM,40.2,23.4 µM,23.4 µM,40.2
5.41 µM,16.6 µM,"FKBP-188 (protein, Description of sequence: Construct Name: FKBP-188; Mutation(s): Q72R Q84E A117W V85R DRD M54A F78S) HCPIKSRKGDVLHAHYTGKLEDGTEFDSSLPRNQPFVSSLGTGERIKGWDQGLLGMCEGEKRKLVIPSELGYGERGWPPKIPGGATLVFEVELLKIER",2.6,5.83 µM,16.6 µM,20.5,20.8 µM,20.8 µM,20.5
